In PMC9181621:

Target: human α2-macroglobulin tetramer, (hα2M)4 (human) (UniProt P01023)
Test: cryo-EM structure
Conditions: scale: trypsin molecule per disulfide-linked hα2M dimer

UniProt P01023, sequence (P01023 24-1474): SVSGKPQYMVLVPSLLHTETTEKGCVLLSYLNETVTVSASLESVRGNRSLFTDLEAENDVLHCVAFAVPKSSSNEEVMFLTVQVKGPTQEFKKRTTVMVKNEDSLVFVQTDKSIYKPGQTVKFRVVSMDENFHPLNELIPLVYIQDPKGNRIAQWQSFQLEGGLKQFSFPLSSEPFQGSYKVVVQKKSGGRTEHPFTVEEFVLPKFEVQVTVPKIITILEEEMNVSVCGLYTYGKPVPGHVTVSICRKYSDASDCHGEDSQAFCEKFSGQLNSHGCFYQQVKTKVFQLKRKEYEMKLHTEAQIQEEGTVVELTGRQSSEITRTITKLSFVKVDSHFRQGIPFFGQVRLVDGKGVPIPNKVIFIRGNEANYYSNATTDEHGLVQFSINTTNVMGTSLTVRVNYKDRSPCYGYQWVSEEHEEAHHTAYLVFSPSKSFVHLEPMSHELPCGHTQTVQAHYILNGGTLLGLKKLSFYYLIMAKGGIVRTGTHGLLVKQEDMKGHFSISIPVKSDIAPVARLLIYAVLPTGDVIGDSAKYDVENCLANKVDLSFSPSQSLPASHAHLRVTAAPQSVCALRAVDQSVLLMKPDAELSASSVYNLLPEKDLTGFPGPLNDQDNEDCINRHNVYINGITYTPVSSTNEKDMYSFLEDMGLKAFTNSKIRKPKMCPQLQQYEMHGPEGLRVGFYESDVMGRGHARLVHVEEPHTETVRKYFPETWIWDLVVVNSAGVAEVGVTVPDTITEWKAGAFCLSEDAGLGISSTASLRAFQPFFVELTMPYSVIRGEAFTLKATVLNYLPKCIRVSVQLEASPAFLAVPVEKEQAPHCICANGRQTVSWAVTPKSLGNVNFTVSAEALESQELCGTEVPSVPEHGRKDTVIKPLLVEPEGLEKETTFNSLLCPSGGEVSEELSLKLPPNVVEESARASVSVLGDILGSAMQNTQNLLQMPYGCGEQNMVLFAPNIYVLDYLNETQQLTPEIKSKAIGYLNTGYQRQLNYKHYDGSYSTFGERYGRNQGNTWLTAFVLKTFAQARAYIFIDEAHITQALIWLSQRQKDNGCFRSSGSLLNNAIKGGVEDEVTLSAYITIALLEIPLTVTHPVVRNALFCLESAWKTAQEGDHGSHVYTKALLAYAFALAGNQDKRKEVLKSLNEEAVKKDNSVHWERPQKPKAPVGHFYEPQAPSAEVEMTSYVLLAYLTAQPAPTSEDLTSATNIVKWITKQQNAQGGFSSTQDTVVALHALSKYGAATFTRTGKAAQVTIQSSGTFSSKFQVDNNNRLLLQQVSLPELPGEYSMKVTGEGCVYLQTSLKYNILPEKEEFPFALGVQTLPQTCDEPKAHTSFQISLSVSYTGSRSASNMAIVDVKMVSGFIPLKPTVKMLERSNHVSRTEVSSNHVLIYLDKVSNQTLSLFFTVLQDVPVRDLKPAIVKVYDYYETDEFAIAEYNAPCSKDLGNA

- stoichiometry N: 1
Substance: bovine trypsin (enzyme)
